Reference: patent US20200292536A1

Columns and labels:
[1] = target: BCL2 peptide Ac-…-amide (amino acids 41-54 of human BCL2 with linkers) (human); assay: IHC with clone 124 on donor block sections, alternative fixatives
[2] = target: Bovine serum albumin (BSA; Ultra Pure) (bovine) (UniProt P02769); assay: immunofluorescent IHC on TMA, cores without peptide
[3] = target: BCL2 peptide Ac-…-amide (amino acids 41-54 of human BCL2 with linkers) (human); assay: chromogenic IHC, aggregate of 10 assays
[4] = target: BCL2 peptide variant with N-terminal arginine (R-C) (human); assay: chromogenic IHC with clone 124 on peptide/BSA gel TMA
Sequence of BCL2 peptide variant with N-terminal arginine (R-C) (human) (peptide, as listed by the source mutant): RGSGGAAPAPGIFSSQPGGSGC

[5] = target: Bovine serum albumin (BSA; Ultra Pure) (bovine) (UniProt P02769); assay: chromogenic IHC, aggregate of 10 assays; BSA only cores
[6] = target: BCL2 peptide Ac-…-amide (amino acids 41-54 of human BCL2 with linkers) (human); assay: chromogenic IHC on BCL2 peptide TMA with or without prior antigen retrieval
[7] = target: Bovine serum albumin (BSA; Ultra Pure) (bovine) (UniProt P02769); assay: chromogenic IHC, aggregate of 10 assays; cores without peptide
[8] = target: BCL2 peptide Ac-…-amide (amino acids 41-54 of human BCL2 with linkers) (human); assay: chromogenic IHC, aggregate of 10 assays; BCL2 peptide 2.5E-06 M as formulated
[9] = target: BCL2 peptide Ac-…-amide (amino acids 41-54 of human BCL2 with linkers) (human); assay: chromogenic IHC, aggregate of 10 assays; BCL2 peptide 2.5E-04 M as formulated
[10] = target: BCL2 peptide Ac-…-amide (amino acids 41-54 of human BCL2 with linkers) (human); assay: chromogenic IHC, aggregate of 10 assays; BCL2 peptide 2.5E-05 M as formulated
[11] = target: BCL2 peptide Ac-…-amide (amino acids 41-54 of human BCL2 with linkers) (human); assay: chromogenic IHC, aggregate of 10 assays; BCL2 peptide 2.5E-08 M as formulated
[12] = target: BCL2 peptide Ac-…-amide (amino acids 41-54 of human BCL2 with linkers) (human); assay: chromogenic IHC, aggregate of 10 assays; BCL2 peptide 2.5E-07 M as formulated
[13] = target: Bovine serum albumin (BSA; Ultra Pure) (bovine) (UniProt P02769); assay: chromogenic IHC on TMA, cores without peptide
[14] = target: BCL2 peptide Ac-…-amide (amino acids 41-54 of human BCL2 with linkers) (human); assay: chromogenic IHC on peptide/BSA gel TMA, antigen concentration at half-maximum signal
[15] = target: MYC peptide Ac-…-amide (amino acids 9-24) (human); assay: chromogenic IHC on BCL2/MYC peptide TMA
Sequence of MYC peptide Ac-…-amide (amino acids 9-24) (human) (peptide, as listed by the source): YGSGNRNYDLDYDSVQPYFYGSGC

[16] = target: MYC peptide Ac-…-amide (amino acids 9-24) (human); assay: IHC with clone Y69 on donor block sections, alternative fixatives

Sequence of BCL2 peptide Ac-…-amide (amino acids 41-54 of human BCL2 with linkers) (human) (peptide, as listed by the source): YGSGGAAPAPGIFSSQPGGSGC
Sequence of UniProt P02769 (P02769 25-607 limits assumed): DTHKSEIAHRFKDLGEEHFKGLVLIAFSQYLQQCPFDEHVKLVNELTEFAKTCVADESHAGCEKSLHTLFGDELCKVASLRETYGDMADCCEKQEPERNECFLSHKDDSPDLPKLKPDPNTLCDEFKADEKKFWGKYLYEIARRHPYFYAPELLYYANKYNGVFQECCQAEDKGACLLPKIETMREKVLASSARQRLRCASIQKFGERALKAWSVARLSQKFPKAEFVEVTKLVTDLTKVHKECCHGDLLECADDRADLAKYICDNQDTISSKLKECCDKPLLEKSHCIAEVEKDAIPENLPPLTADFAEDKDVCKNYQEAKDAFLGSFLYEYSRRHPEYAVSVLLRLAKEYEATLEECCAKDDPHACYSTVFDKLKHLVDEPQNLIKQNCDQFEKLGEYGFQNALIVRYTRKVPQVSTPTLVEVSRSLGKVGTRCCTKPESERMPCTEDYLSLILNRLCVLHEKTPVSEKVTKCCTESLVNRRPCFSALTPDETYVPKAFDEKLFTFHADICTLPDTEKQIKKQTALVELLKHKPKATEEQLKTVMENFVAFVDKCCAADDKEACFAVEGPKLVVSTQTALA

fold signal, formaldehyde fixation against zinc fixation during heating [1] [fold] | non-specific signal in cores containing no added peptide, fold lower than in the chromogenic clone 124 assay [2] [fold] | limit of detection (LOD), peptide concentration [3] [nM] | limit of detection (LOD), signal [3] [units] | ACHM (antigen concentration at half-maximum signal) [4] [nM] | ACHM, fold lower than the original Y-C variant [4] [fold] | Intensity Mean (pixel intensity units) [5] | fold signal strength with against without antigen retrieval [6] [fold] | limit of blank (LOB) [7] [units] | Intensity Mean (pixel intensity units) [8] | Intensity Mean (pixel intensity units) [9] | Intensity Mean (pixel intensity units) [10] | Intensity Mean (pixel intensity units) [11] | Intensity Mean (pixel intensity units) [12] | non-specific signal in cores containing no added peptide, % of the maximum detectable signal [13] [%] | ACHM, fold lower than the ACHM for the chromogenic clone 124 assay [14] [fold] | ACHM, fold lower than the fluorescent clone 124 assay [14] [fold] | ACHM, fold lower than the BCL2 protocol (clone 124 on BCL2 peptide) [15] [fold] | fold signal, formaldehyde fixation against zinc fixation during heating [16] [fold] | Substance
10 | 1000 | 230 | 16 | 443 | 6 | 4.8 | 6 | 8 | 105 | 212 | 202 | 6.1 | 18 | 2.7 | – | – | – | – | CONFIRM anti-bcl-2 (124) Mouse Monoclonal Primary Antibody
– | – | – | – | – | – | – | – | – | – | – | – | – | – | 23 | 8 | > 50 | – | – | rabbit anti-human BCL2 clone EPR17509 (antibody)
– | – | – | – | – | – | – | – | – | – | – | – | – | – | – | – | – | 4 | 10 | rabbit anti-human MYC clone Y69 (antibody)
